Consider two molecules from patent publication US20080312141 (published 2008).

In experiment [1] the target is T1, PSA (human, UniProt P07288). Briefly: other, IFMA.
The next experiment has as its target T2, cathepsin G (human, UniProt P08311).
T2 chain: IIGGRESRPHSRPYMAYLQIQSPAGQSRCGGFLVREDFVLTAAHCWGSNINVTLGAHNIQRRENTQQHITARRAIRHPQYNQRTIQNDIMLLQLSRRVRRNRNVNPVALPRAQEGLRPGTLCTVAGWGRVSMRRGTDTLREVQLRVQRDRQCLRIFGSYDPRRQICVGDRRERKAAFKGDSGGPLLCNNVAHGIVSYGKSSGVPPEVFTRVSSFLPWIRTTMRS
The experiment in a line: other, IFMA.

A further experiment deals with trypsin. Briefly: other, IFMA.
Another experiment addresses hK2 (human, UniProt P20151). The experiment in a line: other, IFMA.
The target in experiment [2] is T1, PSA. Briefly: competition, IFMA with free PSA.

By IC50 is commonly meant the concentration that inhibits the measured activity by half. A high value points to weaker potency.

No end group written: not given here.

T1 sequence (P07288 25-261): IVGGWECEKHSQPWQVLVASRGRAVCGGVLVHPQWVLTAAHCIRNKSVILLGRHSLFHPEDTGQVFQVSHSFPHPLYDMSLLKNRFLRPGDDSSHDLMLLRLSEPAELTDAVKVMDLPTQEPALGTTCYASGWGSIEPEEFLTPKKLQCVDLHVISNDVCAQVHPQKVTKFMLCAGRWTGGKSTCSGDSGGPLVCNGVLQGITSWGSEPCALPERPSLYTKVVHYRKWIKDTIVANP
Sequence of hK2 (P20151 25-261): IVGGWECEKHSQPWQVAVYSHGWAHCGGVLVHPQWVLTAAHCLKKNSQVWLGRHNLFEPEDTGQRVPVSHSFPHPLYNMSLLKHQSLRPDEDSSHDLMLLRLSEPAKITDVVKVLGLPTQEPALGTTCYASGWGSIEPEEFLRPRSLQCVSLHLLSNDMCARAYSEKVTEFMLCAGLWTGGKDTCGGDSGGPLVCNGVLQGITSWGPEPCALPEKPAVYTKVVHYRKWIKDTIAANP

B1: GST-D-1 (peptide)
chain: CLSTCAQSCRISC
modifications: not fully specified (bridges); cysteine pairing not given here; also: GST fusion protein
With B1, the binding result with PSA [1] is given as “no binding”.

B2: GST-C-4 (peptide)
chain: CVAYCIEHHCWTC
Take B2: the binding result with cathepsin G, with trypsin and with hK2 was “no binding” in each case. For the same molecule, the IC50 with PSA [2] was found to be 0.7 nM.
